Target: HBV病毒 (HepAD38细胞上清制备的HBV病毒液)
Assay: cell-based or functional assay

乙肝免疫球蛋白 (HBIG) (antibody)
HBV neutralisation on HepG2-NTCP cells, HBeAg in supernatant (IC50): 15 µg/mL

— patent CN111234012A
